Laboratory results from the NTF2 design screens of Basanta et al. (2020).

Assay: protease stability score; higher = more stable; yeast display proteolysis, trypsin and chymotrypsin;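 further: log10 excess protease needed over predicted unfolded state with 0 meaning unfolded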

Q: With “DRERQKKNLKDFVDALTKGDPDQVVKQFDKDARVRVGDKQVEGRDQIREFAKEWSKHVDRFRITEMRVHNGRLDIQAEQHHNGRKRRIQVEVNWHNGQIKNMQWTHG” as the sequence, how does the protease stability score read?
A: 1.4

Q: For “DRERRHEFATEVVENLKQGDWKRLVEQADKDVTADIGDTKYKGRETFSKWAQQFVRRVDRVEIVDMRLDGDEVRINMDVKHNGQTRRSVFIARWHNGRIKHFRIETG”, which protease stability score is on record?
A: 1.62

Q: With “DREVIKLAKRMITALQKGDHQKFVNLLDPNVRIDVGDKEVHGQEEAQERLREETRQIRVDNHVKTIDDNNGRANFKMSVNAQVNGKPVHYEVNAVVHAHNGKARRLHIKVPEEDKRHLDR” as the sequence, how does the protease stability score read?
A: 0.034

Q: With “DREVLKEFLKQFHEGNFHEVARMADPNAEVEVGDKTVEGREHLITLHKHIHDKADHASIHRVEIHNGRINVELTVNFNGTNVVYRFTLEAENGKLKNINYRARDSDQKRILKRLWG” as the sequence, how does the protease stability score read?
A: 0.091

Q: For “DREVQEHIEQFWKVYRTGDEKRIVELLDPNVKFDYGDRTVEGRETVREEVKKHHDEQRVDFKSVDVKVTNGRIDVKVRAKYHHNGTPDEQKFTASASLNNGRVKHMSRQTSK”, which protease stability score is on record?
A: -0.181

Q: With “DRHDMHKLEEIWKAIQTGDKDRVKELADPNAEFNVGDKTYHGMDQYITDLKKKRDQMRVHLELQSLDVKNGRARAVAVLRNEHNGTPDQRKFKVNATFRNGRLQHLKLQELS” as the sequence, how does the protease stability score read?
A: 0.021

Q: With “DRHERKKVAKDFNEALETNDHEQLMEQMDPNARIKYGDKHYHGREDLRRFWKKLVDSVDHITVDKMQVRGEEVVVLAKAESNGRNETFRLVMEFHNGRIKFVRKDTP” as the sequence, how does the protease stability score read?
A: 0.132

Q: For “DRKAEKLLEDLLDARRTNDEKKLQDLMDPNVKVDVGNKHYEGRERNAKSYAQEYKQMRLEIRVKSIHNNGNHVIQTFDADVRINGKPIRFRAQMMLHFHNGRVQHVYLRLDPSVEQHRRD”, which protease stability score is on record?
A: 0.218

Q: With “DRKAKEFAETLYDIFQRGNFENFLELIDKNVTVDVGDRTLHGRQAHEFAKEFQKEQLKVEVDDWHVDNQGEKVRITMTFVLHVNGRPQKQRQEQRFHLHNGRIKSLQVKTDE” as the sequence, how does the protease stability score read?
A: -0.156

Q: With “DRKLEEVFRKWLKAQKEGNPEVARKNADKDAKIVIGDTQIHGRDEMAEKVRHRKKHLQVDIKIKRMQIQGDKIKIKFEVVENHNGKPEKYKATAFARASDGNFKEMQVNKTG” as the sequence, how does the protease stability score read?
A: 0.12

Q: With “DRKTEKDAIERARTALQDGDPQQAFDLFDENAKIVVGDQEYHGREQVSTAVEEFRKEIDHFEVERVSVHNGHATIDARVEHNGRSDDVTFHVTVHNGQVREAQVRTK” as the sequence, how does the protease stability score read?
A: -0.213

Q: With “DRNANKLATKVFTAYNRNNPKQLVENLDPNAELSYGDKEYHGRENMKKMVEDIKREMQLSIHIDHVDVHNGQARVEFVQENEHNGQPSRKHYVAHFDHENGRVKKLVFKESG” as the sequence, how does the protease stability score read?
A: -0.106

Q: For “DRNHVKEIAKEILKAMETNDEKRMSELMDKNVRLVYGDTEVHGRERVLTTIKHELESIDHVNFHDMSVDGDKIHVVYHVQKNGDRRQVEVRYVISNGKIQEVQINTR”, which protease stability score is on record?
A: 0.623

Q: Which protease stability score does the source give for “DRNRRAEEFARTQLKAFKHGDEKLLRDLFDPNVHISVGDQTVHGRDEVARQEKDQATQVDHATRKIDRVEMNGDQVEVRARIRLNFNGQDRSTDVVYHATDDNGHIVVKSVRQG” here?
A: 0.017

Q: With “DRQASEVARKILQAIRKGDPETMKELVDPNVNVTVGEKTFKGREEAARHFVERQKQIRVQVDSMEVSAHNGKVDARMKVLYNHNGRPVKMDVVVHFDMKNGKARRAEYRVDEEQRRRLET” as the sequence, how does the protease stability score read?
A: 0.082

Q: Which protease stability score does the source give for “DRQNKAQDLAEELRRAFHTNNEDQFKKLADKNARATVGEHTFHGSDEIRKVLKELVDNVDHLRVDIHSVSVHNGQINIDMKLILDHNGRKETQEVHIRAQDHNGQNKVRNITFG” here?
A: -0.154

Q: With “DRQVVRDAQTIFRLEKHGNENDVRRMADPNVDVNIGDKEIRGREEFAKSMRRKRDEIRVSLEIKNWTTTGDKANIDAKMQEEHNGRPSEKRVHIIVTATNGRMKSAHYHNTK” as the sequence, how does the protease stability score read?
A: -0.006

Q: With “DRRDLQLVERVLRALQTGDEDKVMENLDPNARVEYGDKEYHGREQLHEQIERDHRNMRFSIDVKRVDLHGDRAHFDATVTMNINGKPFEDRFHIDVVARNGRIKHLSMKMDPDRVKEVES” as the sequence, how does the protease stability score read?
A: -0.157

Q: With “DRREAHKRAQEMVDNFRDNDKDRIVELADKDVHARIGDKRLHGREELATFLVELARRADRVEVKSIHVQGEQIEMDMQMTVDGRERTFTLRMTYHNGKLKHLEIDPDDLRKIES” as the sequence, how does the protease stability score read?
A: 0.987

Q: Which protease stability score does the source give for “DRRETAKEVMKKISDILKENDENRLEDLMDPNAKVNVGDKRVHGRREAANQMVEEHTRYDHMDMDIRRIDVDGDKIIVIFTVTLTNNGKTDTKNVVIYFTVHNGRVQITRIRHK” here?
A: -0.157

Q: Which protease stability score does the source give for “DRRQEARDIQHDQNRALKHGDQESAQRLFDENARIKIGDRQWHGSDDVMTEVREQHKKVDSIRIHVVSIDVRGDQYDINVQYNLHYDGDNDTFRATQRLKKHNGSVRVVDQHEQ” here?
A: -0.276

Q: Which protease stability score does the source give for “DRSQVESAMRKALHNDPREHEKMFDKDARIQIGDTTFTGQETVLRVIRQLLTKADHIQINDYEISGNKVRIDVQVEVNGRRVRVELDFTVSNGRIKHATWKARSEEELHRIKENLR” here?
A: 0.239

Q: With “DRTAEKVLRQFLHAIRDNNPEQMVDLMDPNVTLEIGDKEITGRESAARTAKTRNDEQRMSLSDYRIDVKGDRITADIDQYNEHNGKPRRHQYILDVNIHNGKIKSLVYESDK” as the sequence, how does the protease stability score read?
A: -0.029

Q: Which protease stability score does the source give for “DRTEILKHMFDDLAQVRRDGDPEKLNELMDEDVKARYGDKEYHGREDVARNIHRLASQADHVHIQLDRMSVDNGKARLEADVRIEHNGKVDEVRVEIRADVDNGRVNLREMIYR” here?
A: 0.839

Q: Which protease stability score does the source give for “DRTKTAKKVWDDFRSIMENNDPKEAEKLFDENAKADLGSKQVHGREQMVEMLRELAERVDHVEIRMKTVTDDNGQLNIEAEVRAEINGKQHTWRNQLNVVQQGDKRRIVSAKYG” here?
A: -0.42

Q: Which protease stability score does the source give for “DSDAARELVKALNTGNEEELKHMVDPNARARVGDKRLHGRDELFRFWHKLKRHVDHRRVNKVEIHGEKAHVDVQLNVDGRNIRVNIVMEAHNGRVKEFTIEFRDRDARKEFRNQVD” here?
A: 1.16

Q: With “DSDAARILVEFWTALQKGDHDRLKQNMDPNAKMKIGDHTLHGREQIAEHATKLKREMRIDIRLKSFDDDGDHAILKFEMRVDVNGKPFSMDVTVNVKAHNGHLVKVNFRIPEKDLQRLNS” as the sequence, how does the protease stability score read?
A: 0.633

Q: For “DSDEIRKFFQQLHTNDEKKLRRNFDKDARFEVGDKDYHGQENAQEAMAQIFQRADHVTYKTVKVEGDKVDMNLQIQVNGKQFDLRLHAKFDNGRLKEASLHVTSEEQHTEVLEMLS”, which protease stability score is on record?
A: 0.643

Q: Which protease stability score does the source give for “DSDEVRKFNEKVKTGNPKHLQDMFDENAKVQIGNKDFRGREHVQTVIDKIERDVDHKEIKRMEVKGDHFEIDAIYNINGHNIRMIIKIQVRNGKIQNMTVEFTNEEQQEIFEENVQ” here?
A: 0.423

Q: Which protease stability score does the source give for “DSDKIDNVVKTIMHDLRKGNPERVMKNADKDVKIVVGDKRYHGRETLETLMKEMVDQADHIQFHSVNIRGEKVVVVAVLQHNGVNVDVQFNMEIDNGRATKVELKVRNPEQQKKFDS” here?
A: 0.583

Q: For “DSDKLRKSAKKFLDLQRTGNEDELKKMIDPNAKAVVGDKEYHGSTEIAHALARMRREVDHITLDRFQFKGNRLKANMTYQHNGRRDRFVVTVTMHNGRVSHITFKST”, which protease stability score is on record?
A: 0.38

Q: For “DSDLVRKMKKFEENRRTGNEHEVDKMIDPNAKLQVGDKTIHGRERQRDYMRELKNSARLDLKIDRVHDQPGRVVATFILKVNINGRPDTIRVKLVIQWHNGEIQRAELRVPEEWMDRFKQ”, which protease stability score is on record?
A: 0.642

Q: With “DSDQSKREMDKFLEMVSTGDPDEVNRLLDKDAHAHVGDQTYHGREEISHMWKELREKIDHLEVHDYKVNGNKLEVDMHATINGQNVVFTVVAVLRNGHFESVEVQYRSEEEEEKVKR” as the sequence, how does the protease stability score read?
A: 0.452

Q: With “DSEAAKRAETFIRNLVQGNEDELRDMADKDVNFQVGDKTVHGREQWQEEVSRTEKEARVEMRVDDYRDEPGTVKLNAKVTIEYNGQPFTVNLHVEIHFKNGKMQRAVFEIDPEVQKEVES” as the sequence, how does the protease stability score read?
A: 0.692

Q: For “DSEAEDLLRRILDAIRTNNREELHRQIDPNAHFEIGDREFKGMTQWATEIVRQAKEIRVDQSFHSISIRNGKLSARVEQVNETNGKPHSRQFKLRMKWHDGQVKFLSMEDDG”, which protease stability score is on record?
A: 0.362

Q: Which protease stability score does the source give for “DSEAHELADTIMHALKHNNPDQLKEQFDPNVRVDIGNNRYHGREQFATEVIRTLREWRVEYKSFDQRNSGDKVDLRIRFVVNVNGRPHRYSVTVHLNFKDGRVKKMKVEMDPDQERKQTQ” here?
A: 0.914

Q: For “DSEAQKIAEKLHEAWNTNNPNEAQHLMDPNAHVRVGDKEIDGMDQYVREMQRLLDKLRLEVKDWDVRAHNGNVTLRANARVDVNGQPQEYTYVIVMQVKNGRVKELHLHIDEEELRTLES”, which protease stability score is on record?
A: 1.02

Q: For “DSEDLVRKFITEWEQAVQQGDEKQLQELMDEDAHVSVGDTKLHGREDIARELAEQIRHADHVQFRIESLSVHGDHVNLNQKVRYKHNGKTDSSRYRLQAIAHGDKVTLKSFHDG”, which protease stability score is on record?
A: -0.28

Q: With “DSEEAKKADEVVQTNDEDRLRDLLDEDARIIIGEFTFHGRHKAEEAVKRFQDAVDHIEIEDYDVQGNEITVVFTVSFNGKKMRFKASFHLRNGRLKHMSMTFTDPDQEREMSNLLR” as the sequence, how does the protease stability score read?
A: 0.56

Q: Which protease stability score does the source give for “DSEEEKTISEQLRTNNPDDAEKLVDENARIVVGDKVIDGRKDAHRFFKRLTEQIDHLQVDSLTVKNGRFSLDFRFNVNGRDLRMVMKVVVDNGKIQYMQLDARDHDIQEHMRDALR” here?
A: 0.967

Q: For “DSEERHDFAHKVMEVFQQGDPDQMRDMADPNVRLHVGEKNVTGRDRVRTALTEFRQRVDHVQVDHVHVTGDKIVIHATVEINGRRRRVIIVARVRNGRIHEIEVDLK”, which protease stability score is on record?
A: 1.61

Q: Which protease stability score does the source give for “DSEERKTVARELNKVLKENDEEKFKRLADENVKLHYGDKEFHGRERAEQVLREWKKRIDHLEVNHVNNTGDRIVIHATVNVNGVNVHLEFNARLDNGHVTSVRLQYRDEEDRKRLES” here?
A: 0.814

Q: With “DSEKDKDWLRKLQSAVERNDPDSVMRLLDPNAEANYGDQTLHGREHIRKMFSELLKHADHVEVTDVRAHNGRLQLDVIMTINGRKSRYDLQFQFSNGRVKKVSVHSR” as the sequence, how does the protease stability score read?
A: 1.26

Q: Which protease stability score does the source give for “DSEKIKDVARQLVRQIEENNPDEIVKLLDPNARADYGDKRISGHEKIADELRKFHERADRIRVETVEVHNGRIVIDLHVNINGRMQRFHVFADLHNGKIKRIEFQTG” here?
A: 1.54

Q: With “DSEKMHEINKALKTNDPDKLEQLMDKDVRAKVGDKTFHGREEVVKMWRDLYKQADHVNVDRVDVQGEKIDATVRADFNGTSVDYKVHISASNGRIKHITVTVTDEERHRQLQSVLG” as the sequence, how does the protease stability score read?
A: 1.31

Q: For “DSEKNEALQRAVEIWNSNDPDKLKKQFDPNARHTYGDTVVHGRENLARRLEQLKRESRLTFQVTHLDVHNGKVTADVTIVEEHNGKPDTKRMDVQANVQNGRFKSVYVHESS”, which protease stability score is on record?
A: -0.003

Q: For “DSEKYLKDLNSNLLRILQTNDEKKLRDLVDKDVKITVGDKSYHGREEFAKVLRTLLNEHDKWRVHYQSIHQHNGKLRAVIDLKAENNGQTLSRNLDITAEERNGEVHVKHAQIG”, which protease stability score is on record?
A: 1.08

Q: Which protease stability score does the source give for “DSENVKVVREFIKAVERNDHQKLRDLVDPNATAQIGDKEYTGMDDIVTRIIETIRQLRFKIKLHHVDNHNGVVNVKAVFTFEHNGKPDKREVDIRVEITNGKVTNFQYQEHK” here?
A: 2.08

Q: Which protease stability score does the source give for “DSERAKEVVKEFEHNDRQKFRDLFDEDASVTIGNRTYHGRHEVERALKRHIDRVDHVKINSVQIRGERIHMEAVFNINGQEFTLQMTLQLSNGKVKTWVLRVTDPDLKRKLHKNME” here?
A: 1.15

Q: Which protease stability score does the source give for “DSERAKQWTHFLRLMETGNEEDLSKMADPNARFQVGDETYKGKDDVTKWARTVKTHMRVTYKRLNNDDEEGHARIEADYQYDHNGKPEEDKNSLVLSFHNGQIKEVVIHHVS” here?
A: 0.164
